Source: publication PMC8221060, “Interplay between chromophore binding and domain assembly by the B12-dependent photoreceptor protein, CarH†” (Chemical Science, 2021)
Each block holds one molecule with its values, some of them ahead of it.

Experiments:
[1] = biological target: TtCarH G192Q variant (Thermus thermophilus) (UniProt Q53W62); assay: stopped-flow fluorescence; quenching of protein emission (excitation at 280 nm) after rapid mixing of apo-protein with AdoCbl at saturating concentrations (≥10×); kapp of the second phase against protein concentration, fit linearly; monomer to dimer step taken as rate-limiting
[2] = biological target: TtCarH G192Q variant (Thermus thermophilus) (UniProt Q53W62); assay: native MS; native ion mobility mass spectrometry; G192Q without AdoCbl; monomer to dimer
[3] = biological target: TtCarH G192Q variant (Thermus thermophilus) (UniProt Q53W62); assay: native MS; native ion mobility mass spectrometry; G192Q with increasing molar ratios of AdoCbl; monomer to dimer
[4] = biological target: the molecule itself; assay: native MS; native ion mobility mass spectrometry; WT TtCarH, 10 μM apo-protein, with AdoCbl from sub-stoichiometric quantities to a two-fold excess
[5] = biological target: the molecule itself; assay: stopped-flow fluorescence; quenching of protein emission (excitation at 280 nm) after rapid mixing of apo-protein with AdoCbl at saturating concentrations (≥10×); kapp of the second phase against protein concentration, fit linearly; monomer to dimer step taken as rate-limiting
[6] = biological target: the molecule itself; assay: native MS; native ion mobility mass spectrometry; WT TtCarH, 10 μM apo-protein, no B12 added; monomer to dimer

- kon [1]: 45100 M⁻¹ s⁻¹
- stoichiometry N [2]: 2
- stoichiometry N [3]: 2
Molecule: TtCarH G192Q variant (from UniProt Q53W62 1-285) (natural protein)

B1: CarH from Thermus thermophilus (TtCarH), wild type (natural protein)
chain: MTSSGVYTIAEVEAMTGLSAEVLRQWERRYGFPKPRRTPGGHRLYSAEDVEALKTIKRWLEEGATPKAAIRRYLAQEVRPEDLGTGLLEALLRGDLAGAEALFRRGLRFWGPEGVLEHLLLPVLREVGEAWHRGEIGVAEEHLASTFLRARLQELLDLAGFPPGPPVLVTTPPGERHEIGAMLAAYHLRRKGVPALYLGPDTPLPDLRALARRLGAGTVVLSAVLSEPLRALPDGALKDLAPRVFLGGQGAGPEEARRLGAEYMEDLKGLAEALWLPRGPEKEAI
notes: CarH, B12-dependent photoreceptor and transcriptional regulator of Thermus thermophilus; Written as the monomer, which associates with itself to dimers and tetramers; The cofactor (AdoCbl or MeCbl, small molecules) was added or left out as told in each assay; also called WT TtCarH; WT
- stoichiometry N [4]: 4
- kon [5]: 50400 ± 2300 M⁻¹ s⁻¹
- stoichiometry N [6]: 2
